Biological target: T1, BCMA on BCMA-positive tumor cell lines (H929, RPMI-8226) (UniProt Q02223 1-184, limits assumed)
T1 sequence (looked up): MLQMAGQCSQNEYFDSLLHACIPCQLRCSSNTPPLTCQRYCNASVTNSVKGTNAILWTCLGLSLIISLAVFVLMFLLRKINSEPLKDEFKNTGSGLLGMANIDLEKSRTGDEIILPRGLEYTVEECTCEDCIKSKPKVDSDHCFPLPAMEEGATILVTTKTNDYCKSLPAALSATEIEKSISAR
Assay: cell-based or functional assay

B1: BCMA-CAR fusion polypeptide (receptor)
chain: QVQLVQSGAEVKKPGASVKVSCKASGYSFPDYYINWVRQAPGQGLEWMGWIYFASGNSEYNQKFTGRVTMTRDTSSSTAYMELSSLRSEDTAVYFCASLYDYDWYFDVWGQGTMVTVSSGGGGSGGGGSGGGGSDIVMTQTPLSLSVTPGEPASISCKSSQSLVHSNGNTYLHWYLQKPGQSPQLLIYKVSNRFSGVPDRFSGSGSGADFTLKISRVEAEDVGVYYCAETSHVPWTFGQGTKLEIKTTTPAPRPPTPAPTIASQPLSLRPEACRPAAGGAVHTRGLDFACDIYIWAPLAGTCGVLLLSLVITLYCRSKRSRLLHSDYMNMTPRRPGPTRKHYQPYAPPRDFAAYRSRVKFSRSADAPAYQQGQNQLYNELNLGRREEYDVLDKRRGRDPEMGGKPRRKNPQEGLYNELQKDKMAEAYSEIGMKGERRRGKGHDGLYQGLSTATKDTYDALHMQALPPR
Q: With B1 as the binder, how does the “% killing at a 0.625 ratio of effector T cells to tumor cells (one donor)” value read?
A: > 50%
